Reference: patent US11260115B1, “Peptides and combination of peptides for use in immunotherapy against CLL and other cancers” (immatics biotechnologies GmbH, priority 2015, dated 2022)

Target: HLA-A*02:01 (Homo sapiens, UniProt P04439, D140Y/D185E/D98H/E176V/E277Q/G131W/G231S/I119V/I121R/I166T/I218V/L300P/L318F/N151K/N90K/P208A/P217A/Q86G/Q94H/R138H/R169H/T345S)
Assay: MHC binding assay (UV-ligand exchange, β2m ELISA, peptide exchange yield)
Settings: binding to HLA-A*02:01
From the text: Candidate peptides for T cell based therapies according to the present invention were further tested for their MHC binding capacity (affinity). The individual peptide-MHC complexes were produced by UV-ligand exchange, where a UV-sensitive peptide is cleaved upon UV-irradiation, and exchanged with the peptide of interest as analyzed. Only peptide candidates that can effectively bind and stabilize the peptide-receptive MHC molecules prevent dissociation of the MHC complexes. To determine the yield of the exchange reaction, an ELISA was performed based on the detection of the light chain (β2m) of stabilized MHC complexes. The assay was performed as generally described in Rodenko et al. (Rodenko et al., 2006).
96 well MAXISorp plates (NUNC) were coated over night with 2 ug/ml streptavidin in PBS at room temperature, washed 4× and blocked for 1 h at 37° C. in 2% BSA containing blocking buffer. Refolded HLA-A*02:01/MLA-001 monomers served as standards, covering the range of 15-500 ng/ml. Peptide-MHC monomers of the UV-exchange reaction were diluted 100 fold in blocking buffer. Samples were incubated for 1 h at 37° C., washed four times, incubated with 2 ug/ml HRP conjugated anti-β2m for 1 h at 37° C., washed again and detected with TMB solution that is stopped with […]. Absorption was measured at 450 nm. Candidate peptides that show a high exchange yield (preferably higher than 50%, most preferred higher than 75%) are generally preferred for a generation and production of antibodies or fragments thereof, and/or T cell receptors or fragments thereof, as they show sufficient avidity to the MHC molecules and prevent dissociation of the MHC complexes.
Table 11: MHC class I binding scores. Binding of HLA-class I restricted peptides to HLA-A*02:01 was ranged by peptide exchange yield: ≥10%=+; ≥20%=++; ≥50=+++; ≥75%=++++

| Substance | Peptide Exchange (MHC class I binding score, peptide exchange yield) |
| --- | --- |
| 119 (VLPAEFFEV; listed as Homo sapiens) [compound 119] | “+++” (>50 = +++) |
| 120 (AIDAALTSV; listed as Homo sapiens) [compound 120] | “+++” (>50 = +++) |
| 121 (RLYEITIEV; listed as Homo sapiens) [compound 121] | “++++” (>75% = ++++) |
| 122 (LLIPVVPGV; listed as Homo sapiens) [compound 122] | “+++” (>50 = +++) |
| 123 (LLLAEAELLTL; listed as Homo sapiens) [compound 123] | “++” (>20% = ++) |
| 124 (LLLEETEKQAV; listed as Homo sapiens) [compound 124] | “+++” (>50 = +++) |
| 125 (LLLEIGEVGKLFV; listed as Homo sapiens) [compound 125] | “+++” (>50 = +++) |
| 126 (LLPEGGITAI; listed as Homo sapiens) [compound 126] | “+++” (>50 = +++) |
| 127 (LLPTAPTTV; listed as Homo sapiens) [compound 127] | “+++” (>50 = +++) |
| 128 (LLSEEEYHL; listed as Homo sapiens) [compound 128] | “+++” (>50 = +++) |
| 130 (LLVLIPVYL; listed as Homo sapiens) [compound 130] | “+” (>10% = +) |
| 131 (LQALEVLKI; listed as Homo sapiens) [compound 131] | “+” (>10% = +) |
| 132 (LVYEAIIMV; listed as Homo sapiens) [compound 132] | “+++” (>50 = +++) |
| 133 (YLLSGDISEA; listed as Homo sapiens) [compound 133] | “+++” (>50 = +++) |
| 134 (MLLEHGITLV; listed as Homo sapiens) [compound 134] | “++++” (>75% = ++++) |
| 135 (MTAGFSTIAGSV; listed as Homo sapiens) [compound 135] | “+” (>10% = +) |
| 136 (NLDKLWTLV; listed as Homo sapiens) [compound 136] | “++” (>20% = ++) |
| 137 (NLIKTVIKL; listed as Homo sapiens) [compound 137] | “+++” (>50 = +++) |
| 138 (NLLDIDAPVTV; listed as Homo sapiens) [compound 138] | “+++” (>50 = +++) |
| 139 (NLTDVVEKL; listed as Homo sapiens) [compound 139] | “+++” (>50 = +++) |

| Substance | Peptide Exchange (MHC class I binding score, peptide exchange yield) |
| --- | --- |
| 140 (QIAELPATSV; listed as Homo sapiens) [compound 140] | “+++” (>50 = +++) |
| 141 (QILSEIVEA; listed as Homo sapiens) [compound 141] | “++” (>20% = ++) |
| 142 (QLDEPAPQV; listed as Homo sapiens) [compound 142] | “++” (>20% = ++) |
| 143 (QLLDTYFTL; listed as Homo sapiens) [compound 143] | “+++” (>50 = +++) |
| 145 (SALDTITTV; listed as Homo sapiens) [compound 145] | “+++” (>50 = +++) |
| 146 (SIIEGPIIKL; listed as Homo sapiens) [compound 146] | “+++” (>50 = +++) |
| 147 (SILETVATL; listed as Homo sapiens) [compound 147] | “+++” (>50 = +++) |
| 148 (SIVASLITV; listed as Homo sapiens) [compound 148] | “+++” (>50 = +++) |
| 149 (SLDNGGYYI; listed as Homo sapiens) [compound 149] | “+++” (>50 = +++) |
| 150 (SLFDQPLSII; listed as Homo sapiens) [compound 150] | “+++” (>50 = +++) |
| 151 (SLFDSAYGA; listed as Homo sapiens) [compound 151] | “+++” (>50 = +++) |
| 152 (SLIRILQTI; listed as Homo sapiens) [compound 152] | “+++” (>50 = +++) |
| 153 (SLLAELHVL; listed as Homo sapiens) [compound 153] | “+++” (>50 = +++) |
| 155 (SLMLEVPAL; listed as Homo sapiens) [compound 155] | “+++” (>50 = +++) |
| 156 (SLNIGDVQL; listed as Homo sapiens) [compound 156] | “+++” (>50 = +++) |
| 157 (SLNIRDFTM; listed as Homo sapiens) [compound 157] | “+++” (>50 = +++) |
| 158 (SLPEAPLDV; listed as Homo sapiens) [compound 158] | “+++” (>50 = +++) |
| 159 (SLQEEKLIYV; listed as Homo sapiens) [compound 159] | “+++” (>50 = +++) |
| 160 (SLSFLVPSL; listed as Homo sapiens) [compound 160] | “+++” (>50 = +++) |
| 161 (SMDDGMINV; listed as Homo sapiens) [compound 161] | “+++” (>50 = +++) |

| Substance | Peptide Exchange (MHC class I binding score, peptide exchange yield) |
| --- | --- |
| 162 (SMKDDLENV; listed as Homo sapiens) [compound 162] | “++” (>20% = ++) |
| 163 (SQLDISEPYKV; listed as Homo sapiens) [compound 163] | “+++” (>50 = +++) |
| 164 (SVHKGFAFV; listed as Homo sapiens) [compound 164] | “+++” (>50 = +++) |
| 165 (TLDDDLDTV; listed as Homo sapiens) [compound 165] | “++” (>20% = ++) |
| 166 (TLDPNQVSL; listed as Homo sapiens) [compound 166] | “++” (>20% = ++) |
| 167 (TLDTSKLYV; listed as Homo sapiens) [compound 167] | “+++” (>50 = +++) |
| 168 (YLLDQSFVM; listed as Homo sapiens) [compound 168] | “++++” (>75% = ++++) |
| 169 (TLLLGLTEV; listed as Homo sapiens) [compound 169] | “+++” (>50 = +++) |
| 170 (TLTFRVETV; listed as Homo sapiens) [compound 170] | “+++” (>50 = +++) |
| 171 (TLVPPAALISI; listed as Homo sapiens) [compound 171] | “+++” (>50 = +++) |
| 172 (TLYDMLASI; listed as Homo sapiens) [compound 172] | “+++” (>50 = +++) |
| 173 (TVIENIHTI; listed as Homo sapiens) [compound 173] | “++” (>20% = ++) |
| 174 (VLAELPIIVV; listed as Homo sapiens) [compound 174] | “+++” (>50 = +++) |
| 175 (FTVPRVVAV; listed as Homo sapiens) [compound 175] | “+++” (>50 = +++) |
| 176 (VLAEQNIIPSA; listed as Homo sapiens) [compound 176] | “+++” (>50 = +++) |
| 177 (VLDDRELLL; listed as Homo sapiens) [compound 177] | “+++” (>50 = +++) |
| 178 (VLFFNVQEV; listed as Homo sapiens) [compound 178] | “+++” (>50 = +++) |
| 179 (VLLGLEMTL; listed as Homo sapiens) [compound 179] | “+++” (>50 = +++) |
| 180 (LLKDGPEIGL; listed as Homo sapiens) [compound 180] | “++” (>20% = ++) |
| 181 (VLLSIPFVSV; listed as Homo sapiens) [compound 181] | “+++” (>50 = +++) |
